Data taken from the supplement of paper PMC9233669.
This sample holds only a part of the variants without activity.

What was measured:
[1] = tested on: biotinyl-Phe-oxazolone; assay: self-aminoacylation, catalytic enhancement (BFO) (fold over background); higher = more active; k-Seq, kA / k0A0; sequences stand for … in GGGAAUGGAUCCACAUCUACGAAUUC…UUCACUGCAGACUUGACGAAGCUG
Procedure, shortened: (§1)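 Mutagenized RNA pools with a 21-nt variable region (0.43 μM) reacted with each biotinyl-aminoacyl-oxazolone at 2–1250 μM. Reactions ran in 50 μL HEPES/NaCl/KCl/MgCl2/CaCl2 buffer with 5% acetonitrile, pH 6.9–7.0, for 90 minutes at room temperature. Streptavidin-captured RNA was quantified by triplicate qPCR and Illumina sequencing, and per-sequence fraction reacted was fit to a pseudo-first-order model with 1000 bootstraps. Catalytic enhancement is median kA divided by the uncatalyzed rate, the low-activity peak of a bimodal Gaussian fit.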

[2] = tested on: biotinyl-Val-oxazolone; assay: self-aminoacylation, catalytic enhancement (BVO) (fold over background); higher = more active; k-Seq, kA / k0A0; sequences stand for … in GGGAAUGGAUCCACAUCUACGAAUUC…UUCACUGCAGACUUGACGAAGCUG
Procedure, shortened: as §1

[3] = tested on: biotinyl-Ile-oxazolone; assay: self-aminoacylation, catalytic enhancement (BIO) (fold over background); higher = more active; k-Seq, kA / k0A0; sequences stand for … in GGGAAUGGAUCCACAUCUACGAAUUC…UUCACUGCAGACUUGACGAAGCUG
Procedure, shortened: as §1

[4] = tested on: biotinyl-Met-oxazolone; assay: self-aminoacylation, catalytic enhancement (BMO) (fold over background); higher = more active; k-Seq, kA / k0A0; sequences stand for … in GGGAAUGGAUCCACAUCUACGAAUUC…UUCACUGCAGACUUGACGAAGCUG
Procedure, shortened: as §1

[5] = tested on: biotinyl-Trp-oxazolone; assay: self-aminoacylation, catalytic enhancement (BWO) (fold over background); higher = more active; k-Seq, kA / k0A0; sequences stand for … in GGGAAUGGAUCCACAUCUACGAAUUC…UUCACUGCAGACUUGACGAAGCUG
Procedure, shortened: as §1

[6] = tested on: biotinyl-Leu-oxazolone; assay: self-aminoacylation, catalytic enhancement (BLO) (fold over background); higher = more active; k-Seq, kA / k0A0; sequences stand for … in GGGAAUGGAUCCACAUCUACGAAUUC…UUCACUGCAGACUUGACGAAGCUG
Procedure, shortened: as §1

Sequence | self-aminoacylation [1] | self-aminoacylation [2] | self-aminoacylation [3] | self-aminoacylation [4] | self-aminoacylation [5] | self-aminoacylation [6]
ACACACUUCAAACAAUCGGUC [Fam1B.1 aminoacylation ribozyme variant] | 65.1 | 1.79 | 1.73 | 1.38 | 40.6 | 2.39
ACACACUUCAAGAAAUCGGUC [Fam1B.1 aminoacylation ribozyme variant] | 5.64 | 1.27 | 1.24 | 1.41 | 4.86 | 1.32
ACACACUUCAAGCAAUCGCUC [Fam1B.1 aminoacylation ribozyme variant] | 2.24 | 1.92 | 1.84 | 1.63 | 2.57 | 1.75
ACAUUUGCUAAUAGUCGCAAG [Fam3.1 aminoacylation ribozyme variant] | 2.27 | 1.92 | 2.46 | 1.79 | 1.32 | 2.43
ACCCACUUCAAGCAAUCGGUC [Fam1B.1 aminoacylation ribozyme variant] | 23.3 | 1.29 | 1.11 | 1.15 | 15.2 | 1.37
ACGCACCUAGGUCAUCGGGUG [Fam2.2 aminoacylation ribozyme variant] | 29 | 3.55 | 3.42 | 4.23 | 4.93 | 3.1
ACGUUUGCUAAUACUCGCAAG [Fam3.1 aminoacylation ribozyme variant] | 1.88 | 0.9 | 1.12 | 0.968 | 0.897 | 0.909
ACUAACCUGGUCAUCGAGUGA [Fam2.1 aminoacylation ribozyme variant] | 2.68 | 2.91 | 3.19 | 4.84 | 5.42 | 3.83
ACUACCCUGAUCAUCGAGUGA [Fam2.1 aminoacylation ribozyme variant] | 6.61 | 3.38 | 3.87 | 5.52 | 7.58 | 5.88
ACUACCCUGGUCAUCGAGUGA [Fam2.1 aminoacylation ribozyme variant] | 266 | 17.4 | 16.2 | 44.3 | 45.2 | 43.4
ACUACCCUGGUCAUGGAGUGA [Fam2.1 aminoacylation ribozyme variant] | 11.6 | 2.59 | 2.86 | 3.35 | 3.33 | 3.32
ACUACCCUUGUCAUCGAGUGA [Fam2.1 aminoacylation ribozyme variant] | 28.7 | 3.24 | 3.28 | 6.22 | 6.54 | 6.34
ACUACCGUGGUCAUCGAGUGA [Fam2.1 aminoacylation ribozyme variant] | 18 | 3.29 | 3.41 | 5.28 | 6.91 | 5.21
ACUACGCUGGUCAUCGAGUGA [Fam2.1 aminoacylation ribozyme variant] | 35.1 | 4.04 | 4.74 | 5.77 | 7.58 | 5.5
ACUCACCUAAGUCAUCGGGUG [Fam2.2 aminoacylation ribozyme variant] | 67.2 | 5.83 | 5.02 | 9.14 | 10.6 | 10.5
ACUCACCUACGUCAUCGGGUG [Fam2.2 aminoacylation ribozyme variant] | 57.3 | 4.69 | 3.98 | 6.25 | 6.64 | 7.79
ACUCACCUAGGGCAUCGGGUG [Fam2.2 aminoacylation ribozyme variant] | 18.2 | 3.83 | 4.42 | 3.92 | 6.35 | 5.19
ACUCACCUAGGUAAUCGGGUG [Fam2.2 aminoacylation ribozyme variant] | 23.9 | 2.85 | 3.22 | 4.2 | 4.3 | 3.66
ACUCACCUAGGUCAUCGGAUG [Fam2.2 aminoacylation ribozyme variant] | 0.718 | 1.02 | 1.13 | 0.912 | 1.48 | 0.812
ACUCACCUAGGUCAUCUGGUG [Fam2.2 aminoacylation ribozyme variant] | 6.43 | 1.57 | 1.68 | 1.87 | 2.35 | 2.03
ACUCACCUAGGUCAUUGGGUG [Fam2.2 aminoacylation ribozyme variant] | 14.3 | 2.56 | 2.31 | 2.35 | 3.78 | 2.91
ACUCACCUAGGUUAUCGGGUG [Fam2.2 aminoacylation ribozyme variant] | 46 | 5.05 | 4.89 | 3.92 | 7.29 | 5.42
ACUCAUCUAGGUCAUCGGGUG [Fam2.2 aminoacylation ribozyme variant] | 42.4 | 5.04 | 5.55 | 6.28 | 7.26 | 6.97
ACUUUUGCUAAUAGUCGCAAG [Fam3.1 aminoacylation ribozyme variant] | 3.71 | 2.57 | 2.75 | 2.59 | 2.56 | 2.68
AGGUUUGCUAACAGUCGCAAG [Fam3.1 aminoacylation ribozyme variant] | 15.2 | 1.25 | 1.57 | 1.68 | 4.91 | 1.66
AGGUUUGCUAAUAGUCGAAAG [Fam3.1 aminoacylation ribozyme variant] | 13.6 | 1.02 | 1.2 | 1.16 | 3.4 | 0.991

Sequence | self-aminoacylation [1] | self-aminoacylation [2] | self-aminoacylation [3] | self-aminoacylation [4] | self-aminoacylation [5] | self-aminoacylation [6]
AGGUUUGCUAAUAGUCGCAAU [Fam3.1 aminoacylation ribozyme variant] | 2.94 | 1.85 | 2.08 | 1.63 | 2.08 | 1.86
AGGUUUGCUAUUAGUCGCAAG [Fam3.1 aminoacylation ribozyme variant] | 3.21 | 1.17 | 1.28 | 1.17 | 1.08 | 1.49
AGUAACCUAGGUCAUCGGGUG [Fam2.2 aminoacylation ribozyme variant] | 33.3 | 3.63 | 4.57 | 5.37 | 7.15 | 6.07
AGUACACUGGUCAUCGAGUGA [Fam2.1 aminoacylation ribozyme variant] | 19.1 | 2.81 | 3.01 | 4.07 | 5.76 | 4.42
AGUACCCCGGUCAUCGAGUGA [Fam2.1 aminoacylation ribozyme variant] | 43.9 | 3.75 | 3.7 | 5.52 | 7.21 | 6.8
AGUACCCGGGUCAUCGAGUGA [Fam2.1 aminoacylation ribozyme variant] | 49.1 | 3.98 | 4.51 | 7.25 | 7.64 | 7.7
AGUACCCUGGACAUCGAGUGA [Fam2.1 aminoacylation ribozyme variant] | 21.2 | 2.8 | 2.69 | 5.06 | 5.83 | 6.32
AGUACCCUGGCCAUCGAGUGA [Fam2.1 aminoacylation ribozyme variant] | 10.2 | 3.11 | 2.53 | 3.41 | 4.09 | 4.09
AGUACCCUGGUCAUCAAGUGA [Fam2.1 aminoacylation ribozyme variant] | 3.2 | 1.75 | 1.61 | 2.28 | 2.89 | 2.35
AGUACCCUGGUCAUCGAGCGA [Fam2.1 aminoacylation ribozyme variant] | 1.16 | 1.9 | 1.94 | 2.19 | 1.89 | 2.28
AGUACCCUGGUCAUCGAUUGA [Fam2.1 aminoacylation ribozyme variant] | 1.09 | 0.981 | 1.09 | 0.999 | 1.58 | 1.07
AGUACCCUGGUCAUCGGGUGA [Fam2.1 aminoacylation ribozyme variant] | 82.1 | 9.99 | 9.32 | 17.7 | 19.6 | 19
AGUACCCUGGUCAUCUAGUGA [Fam2.1 aminoacylation ribozyme variant] | 47.9 | 3.93 | 3.73 | 7.51 | 8.37 | 8.87
AGUACCCUGGUCUUCGAGUGA [Fam2.1 aminoacylation ribozyme variant] | 31.2 | 3.27 | 3.54 | 5.41 | 7.11 | 5.96
AGUCAACUAGGUCAUCGGGUG [Fam2.2 aminoacylation ribozyme variant] | 49.9 | 4.95 | 5.91 | 7.24 | 9.37 | 8.39
AGUCACCUACGUCAUCGGGUG [Fam2.2 aminoacylation ribozyme variant] | 32.4 | 4.21 | 3.49 | 4.95 | 5.27 | 6.83
AGUCACCUAGCUCAUCGGGUG [Fam2.2 aminoacylation ribozyme variant] | 13.9 | 3.12 | 2.6 | 2.42 | 2.81 | 2.79
AGUCACCUAGGCCAUCGGGUG [Fam2.2 aminoacylation ribozyme variant] | 25 | 3.96 | 3.31 | 3.86 | 5.32 | 3.53
AGUCACCUAGGGCAUCGGGUG [Fam2.2 aminoacylation ribozyme variant] | 34.4 | 3.45 | 4.43 | 3.71 | 6.69 | 4.67
AGUCACCUAGGUAAUCGGGUG [Fam2.2 aminoacylation ribozyme variant] | 25.4 | 2.75 | 3.27 | 3.4 | 3.64 | 3.37
AGUCACCUAGGUCAGCGGGUG [Fam2.2 aminoacylation ribozyme variant] | 39.5 | 3.77 | 4.2 | 4.31 | 5.59 | 5.54
AGUCCCCUAGGUCAUCGGGUG [Fam2.2 aminoacylation ribozyme variant] | 93.9 | 7.97 | 8.61 | 12 | 11.4 | 16.9
AUAACCCAGGUCAUCGAGUGA [Fam2.1 aminoacylation ribozyme variant] | 19.3 | 2.95 | 2.67 | 5.5 | 6.13 | 4.72
AUAACCCGGGUCAUCGAGUGA [Fam2.1 aminoacylation ribozyme variant] | 45.7 | 3.29 | 3.78 | 6.42 | 7.61 | 8.98
AUAACCCUCGUCAUCGAGUGA [Fam2.1 aminoacylation ribozyme variant] | 10.7 | 2.13 | 1.89 | 3.43 | 3.79 | 3.59
